Measured values reported in article PMC4906797.

System: C/C=C/C=C/C(=O)CC(=O)SCCNC(C)=O
Assay: purified protein

Substance: LovB (lovastatin nonaketide synthase) (Aspergillus terreus)
- kcat: 3.27 s⁻¹
